Measurements: patent publication US11920136B2, “Transglutaminase-mediated conjugation” (Tallac Therapeutics, Inc., priority 2020, dated 2024)

B1: TNT50a: "an anti-mouse CD22 antibody (SEQ ID NO: 124 and SEQ ID NO: 125) conjugated to mouse CpG 4523 (SEQ ID NO: 121) of DAR1 configuration" (conjugate, listed as Mus musculus)
chain 1: QVQLQQPGAEIVRPGTSVKLSCKASGYTFTDYWMNWVKQRPGQGLEWFGAIDPSDSYTRYNQEFKGKATLTVDTSSTTAYMQLSSLTSEDSAVYFCARSDYTYSFYFDYWGLGTTLTVSS
chain 2: DIVMTQAAFSNPVTLGTSASISCRSSKSLLHSNGITYLYWYLQKPGQSPQLLIYQMSNLASGVPDRFSSSGSGTDFTLRISRVEAEDVGVYYCAQNLELPWTFGGGTKLEIK
DNA: tucgtcgtgacgtt
modifications: antibody-CpG conjugate, DAR1
B2: CD22 Ab-CpG conjugate: "anti-mouse CD22 antibody (SEQ ID NO: 124 and SEQ ID NO: 125) conjugated to mouse CpG 4523 (SEQ ID NO: 121) with a DAR1 configuration" (conjugate, listed as Mus musculus)
chain 1: QVQLQQPGAEIVRPGTSVKLSCKASGYTFTDYWMNWVKQRPGQGLEWFGAIDPSDSYTRYNQEFKGKATLTVDTSSTTAYMQLSSLTSEDSAVYFCARSDYTYSFYFDYWGLGTTLTVSS
chain 2: DIVMTQAAFSNPVTLGTSASISCRSSKSLLHSNGITYLYWYLQKPGQSPQLLIYQMSNLASGVPDRFSSSGSGTDFTLRISRVEAEDVGVYYCAQNLELPWTFGGGTKLEIK
DNA: tucgtcgtgacgtt
modifications: antibody-CpG conjugate, DAR1

Columns and labels:
[1] = tested on: CT26 mouse colon carcinoma cells; test: CT26 model, anti-PD1 non-responders; type: in vivo, BALB/c mice; conditions: conjugate intravenously 2 doses every 3 days at 10 mg/kg; anti-PD1 intraperitoneal 10 mg/kg
Method: 100 uL of suspended cells were subcutaneously implanted into the right flank of 6 week old female BALB/c mice (Charles River).

[2] = tested on: EMT6 mouse mammary carcinoma cells; test: EMT6 breast cancer model (checkpoint inhibitor refractory), intraperitoneal dosing; type: in vivo, BALB/c mice; conditions: intraperitoneally 2 doses every 3, 5 or 7 days at 10 mg/kg
Method: EMT6 mouse mammary carcinoma cells (ATCC) were cultured in Complete RPMI 1640 (RPMI1640+10% FBS (Gibco)) at 37° C. and 5% CO2. Cells were detached with Trypsin 0.25% (Gibco) and washed twice with RPMI 1640 (Gibco). Cells were resuspended at 20E6/mL in RPMI 1640 and kept on ice until use. 100 uL of suspended cells were subcutaneously implanted into the right flank of 6 week old female BALB/c mice (Charles River). Tumor size was measured and recorded twice a week with calipers starting 3 days post implantation until duration of the study, approximately 35 days later. Tumor volume was calculated using the following formula: (length×width×width)/2. Once tumors reached on average 75 mm^3, approximately 3 days post implantation, mice were randomized by tumor size and treatments were initiated. […] TNT50a conjugates were administered intraperitoneally 2 doses every 3, 5 or 7 days at 10 mg/kg.

spleens and tumors = test: Immunophenotyping of spleen and tumor in syngeneic models (A20, CT26, EMT6); type: in vivo, BALB/c mice; conditions: 1 or 2 doses intraperitoneally every 3 days at 10 mg/kg
Method: Immunophenotyping of multiple syngeneic models administered with TNT50a were conducted. […] A20 B cell lymphoma, CT26 colon carcinoma, EMT6 mouse mammary carcinoma cells (ATCC) were cultured in Complete RPMI 1640 (RPMI1640+10% FBS (Gibco)) at 37° C. and 5% CO2. Cells were detached with Trypsin 0.25% (Gibco) and washed twice with RPMI 1640 (Gibco). Cells were resuspended at 20E6/mL in RPMI 1640 and kept on ice until use. 100 uL of suspended cells were subcutaneously implanted into the right flank of 6 week old female BALB/c mice (Charles River). Tumor size was measured with calipers. Tumor volume was calculated using the following formula: (length×width×width)/2. Once tumors reached on average 200-300 mm^3, mice were randomized by tumor size and treatments were initiated. The conjugates were administered 1 or 2 doses intraperitoneally every 3 days at 10 mg/kg.
Spleens and tumors were harvested either two or three days post-last injection for immunophenotyping. Spleens were processed into single-cell suspension in ice-cold PBS, lysed with ACK lysis buffer (Gibco), washed twice and re-suspended in PBS supplemented with 2% FBS. Tumor-derived single-cell suspensions were prepared using a cocktail of Collagenase A (Roche), Collagenase D (Roche) and DNAse (Roche) for 45 min at 37° C. […]

[3] = tested on: EMT6 mouse mammary carcinoma cells; test: EMT6 breast cancer model, intratumoral administration; type: in vivo, BALB/c mice; conditions: intratumorally 2 doses every 3 days at 24 uM
Method: 100 uL of suspended cells were subcutaneously implanted into the right flank of 6 week old female BALB/c mice (Charles River). Tumor size was measured and recorded twice a week with calipers starting 7 days post implantation until duration of the study, approximately 25 days later. Tumor volume was calculated using the following formula: (length×width×width)/2. Once tumors reached on average 180 mm^3, approximately 7 days post implantation, mice were randomized by tumor size and treatments were initiated.

4T1 cells = test: 4T1 lung metastatic burden; type: in vivo, BALB/C mice; conditions: 10 mg/kg, 3 doses every 3 days; compared to the control

Molecule	tumor volume in anti-PD1 non responders [1]	anti-tumor efficacy [2]	immune cell changes in spleen and tumor (spleens and tumors)	anti-tumor potency [3]	number of metastatic plaques (4T1 cells)
B1	tumor volume was reduced	showed anti-tumor efficacy in all three dosing regimens	–	–	–
B2	–	–	promotes B cell differentiation, decrease in Bregs, increase in T cell effector function and modulation of suppressive myeloid cells	showed anti-tumor potency	significantly reduced
